The target in the experiment is T1, GST-VAMP-2 (VAMP-2 generated as a GST fusion protein, bound to glutathione beads) (UniProt P63027 1-94).
T1 construct: not shown: glutathione S-transferase (GST) tag
Nature of the experiment: GST pull down, immunoblot for the HA tag. For orientation: A western blot detects proteins with antibodies after separation by electrophoresis.

T1 sequence (P63027 1-94): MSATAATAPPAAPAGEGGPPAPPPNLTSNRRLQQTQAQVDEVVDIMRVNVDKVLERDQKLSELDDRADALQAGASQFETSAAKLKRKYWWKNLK

B1: TAT-HA-SNAP-23 fusion polypeptide (TAT cell-penetrating polypeptide, hemagglutinin affinity tag, and 78 amino acids from the amino-terminus of human SNAP-23) (other)
chain: MRGSHHHHHHGMASMTGGQQMGRDLYDDDDKDRWGSKLGYGRKKRRQRRRGGSTMSGYPYDVPDYAGSMDNLSSEEIQQRAHQITDESLESTRRILGLAIESQDAGIKTITMLDEQKEQLNRIEEGLDQINKDMRETEKTLTELNK
notes: also called TAT-SNAP-23
For B1, the binding result is “no binding”.

The values are drawn from patent publication US20110178020A1 (UNIVERSITY OF LOUISVILLE RESEARCH FOUNDATION, published 2011).
